This passage reports Kd and yeast surface expression results from the FLAb antibody collection (doi:10.7554/elife.23156).

The labels stand for the following.
B1: scFv; the commonest letter at each place (parent)
chain 1: EVKLDETGGGLVQPGRPMKLSCVASGFTFSDYWMNWVRQSPEKGLEWVAQIRNKPYNYETYYSDSVKGRFTISRDDSKSSVYLQMNNLRVEDMGIYYCTGSYYGMDYWGQGTSVTVS
chain 2: DVVMTQTPLSLPVSLGDQASISCRSSQSLVHSNGNTYLRWYLQKPGQSPKVLIYKVSNRFSGVPDRFSGSGSGTDFTLKISRVEAEDLGVYFCSQSTHVPWTFGGGTKLEIK

Variants of B1 are the subject of the series “fluorescein”. In words: Kd (Tite-Seq). The note with it: with fluorescein; format: scFv 4-4-20, heavy + light.
In series [1] the parent is B1. In words: yeast surface expression (ratio to wild type); higher = more expressed. The note with it: format: scFv 4-4-20, heavy + light.

The term Kd denotes a measure of binding affinity in units of concentration. On to chain 1 S30H D31H, for which the Kd in the series with fluorescein came out at 0.00175 µM. In addition, in series [1], the yeast surface expression is 0.746.

As to chain 1 S30H D31K, the Kd with fluorescein came out at 0.00468 µM. Moreover, the yeast surface expression in series [1] was determined as 0.668.

As for chain 1 S30H D31L, the equilibrium dissociation constant (Kd) with fluorescein was at least 10 µM. Besides, the yeast surface expression in series [1] was determined as 0.608.

In the case of chain 1 S30H D31I, the dissociation constant (Kd) with fluorescein was at least 10 µM. Moreover, the yeast surface expression in series [1] worked out at 0.573.

As for chain 1 S30Q D31H Y32N, the Kd with fluorescein is at least 10 µM. For the same variant, the yeast surface expression in series [1] came out at 0.857.

For chain 1 S30G W33V, the dissociation constant Kd in the series with fluorescein was at least 10 µM. The yeast surface expression in series [1] stood at 1.

With chain 1 S30L Y32H, the equilibrium dissociation constant (Kd) in the series with fluorescein turned out to be 2.23 µM. Besides, in series [1], the yeast surface expression is 0.8.

On to chain 1 N35E V37W, for which the dissociation constant Kd with fluorescein is at least 10 µM. Moreover, in series [1], the yeast surface expression was 0.704.

As to chain 1 N35E V37Q, the dissociation constant Kd with fluorescein was at least 10 µM. Moreover, in series [1], the yeast surface expression came to 0.427.

On to chain 1 N35M V37Y, for which the Kd with fluorescein is at least 10 µM. The yeast surface expression in series [1] amounted to 0.798.

Turning to chain 1 S30D N35Q, the equilibrium dissociation constant (Kd) in the series with fluorescein was at least 10 µM. Moreover, the yeast surface expression in series [1] came to 0.883.

As for chain 1 S30D N35R, the equilibrium dissociation constant (Kd) with fluorescein was at least 10 µM. In addition, the yeast surface expression in series [1] was found to be 0.195.

For chain 1 S30F N35H, the Kd with fluorescein is at least 10 µM. For the same variant, in series [1], the yeast surface expression came to 0.53.

Take chain 1 S30F N35C: in the series with fluorescein, the Kd is at least 10 µM. Further, the yeast surface expression in series [1] stood at 0.555.

On to chain 1 S30F N35T, for which the Kd with fluorescein is at least 10 µM. For the same variant, the yeast surface expression in series [1] came out at 0.588.

In the case of chain 1 S30H W33A, the equilibrium dissociation constant (Kd) with fluorescein was at least 10 µM. In addition, the yeast surface expression in series [1] was 0.733.

chain 1 S30H W33C: the Kd in the series with fluorescein is at least 10 µM. The yeast surface expression in series [1] worked out at 0.61.

Take chain 1 S30T M34I: the Kd with fluorescein was found to be 0.00493 µM. Moreover, the yeast surface expression in series [1] turned out to be 0.678.

As for chain 1 S30T M34E, the Kd in the series with fluorescein was 0.345 µM. Moreover, the yeast surface expression in series [1] was found to be 0.314.

Turning to chain 1 S30R Y32Q, in the series with fluorescein, the Kd was at least 10 µM. Besides, in series [1], the yeast surface expression was found to be 1.13.

Take chain 1 S30R Y32W: the equilibrium dissociation constant (Kd) with fluorescein is at least 10 µM. Also, in series [1], the yeast surface expression is 0.811.

With chain 1 N35V W36M, the dissociation constant (Kd) with fluorescein is at least 10 µM. The yeast surface expression in series [1] amounted to 0.488.

As to chain 1 N35F V37D, the dissociation constant Kd in the series with fluorescein is at least 10 µM. In series [1], the yeast surface expression amounted to 0.704.

For chain 1 N35F V37A, the Kd with fluorescein is at least 10 µM. In series [1], the yeast surface expression was 0.871.

chain 1 N35F V37S: the Kd in the series with fluorescein is at least 10 µM. In series [1], the yeast surface expression turned out to be 0.884.

Consider chain 1 S30P W33Q W36F, for which the Kd with fluorescein is at least 10 µM. Further, in series [1], the yeast surface expression was determined as 0.838.

Take chain 1 S30K V37A: the equilibrium dissociation constant (Kd) in the series with fluorescein is 0.0272 µM. Moreover, the yeast surface expression in series [1] worked out at 0.745.

Turning to chain 1 S30K Y32S M34V, in the series with fluorescein, the dissociation constant (Kd) was at least 10 µM. For the same variant, the yeast surface expression in series [1] was 0.837.

Turning to chain 1 N35W V37Q, the Kd with fluorescein is at least 10 µM. Moreover, the yeast surface expression in series [1] turned out to be 0.372.

As for chain 1 N35W V37G, the Kd in the series with fluorescein was found to be 0.021 µM. Also, the yeast surface expression in series [1] stood at 1.18.

As to chain 1 N35S V37L, the Kd in the series with fluorescein was at least 10 µM. Also, the yeast surface expression in series [1] came out at 0.839.

chain 1 N35S V37E: in the series with fluorescein, the equilibrium dissociation constant (Kd) is at least 10 µM. Besides, in series [1], the yeast surface expression is 0.574.

Consider chain 1 S30H M34F, for which, in the series with fluorescein, the equilibrium dissociation constant (Kd) came to 0.0015 µM. The yeast surface expression in series [1] stood at 0.945.

chain 1 S30H M34C: the Kd in the series with fluorescein stood at 6.96 µM. For the same variant, the yeast surface expression in series [1] came to 0.623.

chain 1 S30D W33N: the Kd with fluorescein is at least 10 µM. For the same variant, the yeast surface expression in series [1] worked out at 1.07.

With chain 1 S30L W33E, the equilibrium dissociation constant (Kd) in the series with fluorescein was at least 10 µM. Besides, the yeast surface expression in series [1] is 0.645.

As for chain 1 S30L W33D, in the series with fluorescein, the dissociation constant Kd was at least 10 µM. The yeast surface expression in series [1] came out at 0.844.

Consider chain 1 S30L W33I, for which, in the series with fluorescein, the Kd is at least 10 µM. The yeast surface expression in series [1] was determined as 0.639.

For the variant chain 1 N35L W36R, in the series with fluorescein, the Kd is at least 10 µM. In addition, the yeast surface expression in series [1] was found to be 0.352.

On to chain 1 N35L W36I, for which the dissociation constant (Kd) with fluorescein was at least 10 µM. Also, the yeast surface expression in series [1] was 0.256.

In the case of chain 1 N35G V37K, the equilibrium dissociation constant (Kd) with fluorescein was at least 10 µM. For the same variant, the yeast surface expression in series [1] is 0.46.

In the case of chain 1 S30A W36H, in the series with fluorescein, the Kd was at least 10 µM. Also, the yeast surface expression in series [1] amounted to 0.457.

As to chain 1 S30M M34P, the Kd with fluorescein is at least 10 µM. Also, the yeast surface expression in series [1] worked out at 2.67.

For chain 1 S30M M34L, the dissociation constant Kd in the series with fluorescein worked out at 0.00299 µM. Also, the yeast surface expression in series [1] is 0.94.

With chain 1 S30H V37F, the Kd with fluorescein was determined as 0.0562 µM. For the same variant, in series [1], the yeast surface expression is 0.754.

Consider chain 1 S30H W36M, for which the equilibrium dissociation constant (Kd) with fluorescein was 2.34 µM. In addition, the yeast surface expression in series [1] came to 0.564.

Take chain 1 S30H W36F: in the series with fluorescein, the Kd came to 0.004 µM. Further, in series [1], the yeast surface expression was 0.728.

Regarding chain 1 N35P W36V, the dissociation constant Kd with fluorescein came to 7.33 µM. Also, the yeast surface expression in series [1] was found to be 1.08.

In the case of chain 1 N35P W36T, in the series with fluorescein, the Kd was at least 10 µM. Further, the yeast surface expression in series [1] amounted to 0.338.

Consider chain 1 S30I W33Y V37P, for which, in the series with fluorescein, the Kd came out at 7.33 µM. Also, in series [1], the yeast surface expression was 0.0571.

Consider chain 1 S30Q D31H, for which, in the series with fluorescein, the Kd was found to be 0.00158 µM. Moreover, the yeast surface expression in series [1] worked out at 0.881.

In the case of chain 1 S30A V37Y, the Kd in the series with fluorescein was determined as 0.0391 µM. For the same variant, the yeast surface expression in series [1] worked out at 1.1.

As for chain 1 S30A V37R, in the series with fluorescein, the Kd was 0.00871 µM. Also, the yeast surface expression in series [1] amounted to 1.16.

Consider chain 1 S30R D31N W36A, for which the Kd with fluorescein is at least 10 µM. Further, the yeast surface expression in series [1] was 0.32.

For the variant chain 1 N35T V37P, the Kd with fluorescein is at least 10 µM. The yeast surface expression in series [1] is 0.726.

In the case of chain 1 S30R N35F, the dissociation constant Kd with fluorescein is at least 10 µM. Further, the yeast surface expression in series [1] turned out to be 0.413.

chain 1 S30R N35V: the Kd with fluorescein is at least 10 µM. For the same variant, the yeast surface expression in series [1] amounted to 0.567.

Take chain 1 S30R N35R: in the series with fluorescein, the Kd is at least 10 µM. Moreover, in series [1], the yeast surface expression is 0.535.
